Source: the supplement of paper PMC10065799, “High-throughput profiling of sequence recognition by tyrosine kinases and SH2 domains using bacterial peptide display” (eLife, 2023)

Experiments:
EPHB1 = EPHB1 (UniProt P54762); test: phosphorylation enrichment, bacterial display (enrichment ratio); higher = better substrate or ligand; peptides without Tyr show the background
Hck = Hck (UniProt P08631); test: as above
Fes = Fes (UniProt P07332); test: as above
FGFR3 = FGFR3 (UniProt P22607); test: as above
FGFR3, sequence (P22607 whole entry, looked up): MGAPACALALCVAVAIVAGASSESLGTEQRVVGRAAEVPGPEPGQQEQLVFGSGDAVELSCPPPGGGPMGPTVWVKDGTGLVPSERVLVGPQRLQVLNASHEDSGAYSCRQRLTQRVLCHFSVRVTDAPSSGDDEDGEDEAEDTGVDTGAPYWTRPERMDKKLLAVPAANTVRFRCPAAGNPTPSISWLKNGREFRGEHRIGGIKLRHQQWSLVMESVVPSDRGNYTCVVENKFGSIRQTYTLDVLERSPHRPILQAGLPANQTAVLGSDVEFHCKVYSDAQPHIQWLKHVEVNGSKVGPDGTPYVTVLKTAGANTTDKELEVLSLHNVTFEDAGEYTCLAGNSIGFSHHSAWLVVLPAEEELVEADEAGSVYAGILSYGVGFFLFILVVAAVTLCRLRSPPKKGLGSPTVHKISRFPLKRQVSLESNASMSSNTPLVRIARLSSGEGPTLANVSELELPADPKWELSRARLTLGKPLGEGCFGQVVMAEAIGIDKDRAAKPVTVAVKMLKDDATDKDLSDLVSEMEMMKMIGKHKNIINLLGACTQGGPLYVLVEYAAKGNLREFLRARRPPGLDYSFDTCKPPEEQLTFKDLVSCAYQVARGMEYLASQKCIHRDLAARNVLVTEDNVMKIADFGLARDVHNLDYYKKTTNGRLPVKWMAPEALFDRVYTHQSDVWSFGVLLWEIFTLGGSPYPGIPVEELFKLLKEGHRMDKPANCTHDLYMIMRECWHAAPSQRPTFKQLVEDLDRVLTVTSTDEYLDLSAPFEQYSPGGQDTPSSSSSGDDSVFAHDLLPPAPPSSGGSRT

Fer (mouse) = test: as above
EPHB2 = EPHB2 (UniProt P29323); test: as above
EPHB2, sequence (P29323 whole entry, looked up): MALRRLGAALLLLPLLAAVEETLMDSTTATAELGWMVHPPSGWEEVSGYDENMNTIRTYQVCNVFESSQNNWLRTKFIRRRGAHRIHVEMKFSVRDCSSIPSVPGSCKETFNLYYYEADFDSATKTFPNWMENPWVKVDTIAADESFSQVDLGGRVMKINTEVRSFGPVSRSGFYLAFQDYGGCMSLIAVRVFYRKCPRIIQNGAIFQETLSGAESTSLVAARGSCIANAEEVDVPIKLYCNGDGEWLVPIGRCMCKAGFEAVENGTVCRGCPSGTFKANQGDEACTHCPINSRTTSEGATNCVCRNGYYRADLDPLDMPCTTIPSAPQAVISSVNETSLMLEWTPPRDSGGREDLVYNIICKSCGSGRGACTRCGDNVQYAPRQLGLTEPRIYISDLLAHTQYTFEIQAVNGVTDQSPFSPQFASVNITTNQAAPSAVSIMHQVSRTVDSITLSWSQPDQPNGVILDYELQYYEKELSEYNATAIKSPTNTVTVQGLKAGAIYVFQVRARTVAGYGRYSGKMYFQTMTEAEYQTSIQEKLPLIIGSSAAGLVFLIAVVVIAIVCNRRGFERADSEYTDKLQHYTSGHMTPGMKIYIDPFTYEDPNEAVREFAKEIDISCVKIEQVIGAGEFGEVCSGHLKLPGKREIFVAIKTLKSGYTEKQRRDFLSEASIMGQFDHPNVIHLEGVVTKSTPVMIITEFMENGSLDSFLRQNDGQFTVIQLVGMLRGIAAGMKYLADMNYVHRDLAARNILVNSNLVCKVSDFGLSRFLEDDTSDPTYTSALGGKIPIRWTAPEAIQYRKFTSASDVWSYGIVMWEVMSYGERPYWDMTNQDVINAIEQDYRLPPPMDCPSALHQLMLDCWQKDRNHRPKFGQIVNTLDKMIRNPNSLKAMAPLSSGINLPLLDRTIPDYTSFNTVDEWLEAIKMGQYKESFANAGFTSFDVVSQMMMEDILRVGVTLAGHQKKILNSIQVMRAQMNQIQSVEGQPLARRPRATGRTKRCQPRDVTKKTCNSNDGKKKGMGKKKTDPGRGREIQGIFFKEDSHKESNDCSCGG

c-Abl (mouse) = test: as above
AncSZ = test: as above
MERTK = MERTK (UniProt Q12866); test: as above
MERTK, sequence (Q12866 whole entry, looked up): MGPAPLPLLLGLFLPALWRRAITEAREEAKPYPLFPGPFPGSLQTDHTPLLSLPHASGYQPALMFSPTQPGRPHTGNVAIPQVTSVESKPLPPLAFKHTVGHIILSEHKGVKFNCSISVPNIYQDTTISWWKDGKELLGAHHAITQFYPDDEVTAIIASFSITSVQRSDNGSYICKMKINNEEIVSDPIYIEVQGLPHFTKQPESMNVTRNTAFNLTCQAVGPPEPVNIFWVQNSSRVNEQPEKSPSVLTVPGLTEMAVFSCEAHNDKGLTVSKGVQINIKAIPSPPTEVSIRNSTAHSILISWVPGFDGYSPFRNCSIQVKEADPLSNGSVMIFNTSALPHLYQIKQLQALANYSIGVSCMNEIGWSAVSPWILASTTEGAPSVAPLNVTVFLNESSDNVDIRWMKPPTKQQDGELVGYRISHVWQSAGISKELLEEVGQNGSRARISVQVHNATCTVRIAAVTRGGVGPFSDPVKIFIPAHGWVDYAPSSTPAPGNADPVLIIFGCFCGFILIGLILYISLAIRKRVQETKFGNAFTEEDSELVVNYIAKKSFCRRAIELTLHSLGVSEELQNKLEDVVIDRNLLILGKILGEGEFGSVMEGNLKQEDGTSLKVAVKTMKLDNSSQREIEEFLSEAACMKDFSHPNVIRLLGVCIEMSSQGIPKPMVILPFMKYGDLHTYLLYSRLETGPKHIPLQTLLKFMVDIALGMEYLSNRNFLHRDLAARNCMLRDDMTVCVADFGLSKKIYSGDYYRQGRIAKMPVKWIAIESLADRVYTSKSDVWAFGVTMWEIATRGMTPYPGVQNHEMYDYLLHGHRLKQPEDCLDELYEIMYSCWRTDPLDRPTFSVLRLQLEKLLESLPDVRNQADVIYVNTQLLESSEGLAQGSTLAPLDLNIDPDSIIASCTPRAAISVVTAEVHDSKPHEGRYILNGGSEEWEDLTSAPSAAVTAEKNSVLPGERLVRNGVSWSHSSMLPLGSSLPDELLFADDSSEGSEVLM

Jak2 = Jak2 (UniProt O60674); test: as above
FGFR1 = FGFR1 (UniProt P11362); test: as above
FGFR1, sequence (P11362 whole entry, looked up): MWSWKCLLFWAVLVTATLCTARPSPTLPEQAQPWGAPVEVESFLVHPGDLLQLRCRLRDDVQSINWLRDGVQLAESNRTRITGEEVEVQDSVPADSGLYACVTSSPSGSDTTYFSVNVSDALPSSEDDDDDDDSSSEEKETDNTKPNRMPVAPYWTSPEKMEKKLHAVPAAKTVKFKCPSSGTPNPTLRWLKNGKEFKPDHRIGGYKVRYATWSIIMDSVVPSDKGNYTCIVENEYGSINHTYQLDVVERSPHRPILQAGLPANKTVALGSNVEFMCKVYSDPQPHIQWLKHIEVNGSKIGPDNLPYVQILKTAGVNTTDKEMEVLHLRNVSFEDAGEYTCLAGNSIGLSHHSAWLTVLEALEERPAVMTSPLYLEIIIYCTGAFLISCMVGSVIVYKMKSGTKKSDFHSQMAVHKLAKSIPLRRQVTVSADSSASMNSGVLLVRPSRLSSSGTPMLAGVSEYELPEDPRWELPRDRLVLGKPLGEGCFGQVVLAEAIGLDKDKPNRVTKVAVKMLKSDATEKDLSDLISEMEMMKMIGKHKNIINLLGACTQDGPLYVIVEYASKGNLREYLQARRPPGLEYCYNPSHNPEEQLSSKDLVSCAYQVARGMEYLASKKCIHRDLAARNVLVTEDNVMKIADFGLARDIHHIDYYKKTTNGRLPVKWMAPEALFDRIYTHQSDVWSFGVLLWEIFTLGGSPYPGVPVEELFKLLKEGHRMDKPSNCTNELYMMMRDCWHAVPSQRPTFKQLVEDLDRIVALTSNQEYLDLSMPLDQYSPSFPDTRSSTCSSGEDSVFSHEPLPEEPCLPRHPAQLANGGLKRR

c-Src = test: as above
Fyn = Fyn (UniProt P06241); test: as above
SHP2-C SH2 = test: SH2 binding enrichment of the phosphorylated peptide, bacterial display (enrichment ratio); higher = better substrate or ligand; peptides without Tyr show the background
c-Src SH2 = test: as above
Grb2 SH2 = Grb2 SH2 (UniProt P62993); test: as above
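Throughout, for SH2 binding enrichment of the phosphorylated peptide, bacterial display: peptide library displayed on the E. coli surface as eCPX fusions, selected cells deep-sequenced, score is each peptide's frequency after selection divided by its frequency in the input.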
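Throughout, for phosphorylation enrichment, bacterial display: 11-residue human phosphosite peptides and single-mutation variants displayed on the E. coli surface, counted by deep sequencing, each peptide's frequency after selection divided by its frequency in the unselected input library; frequency after pTyr selection over input frequency; kinase dosed for 20-30% of maximal phosphorylation in three min.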

EPHB1, sequence (P54762 whole entry, looked up): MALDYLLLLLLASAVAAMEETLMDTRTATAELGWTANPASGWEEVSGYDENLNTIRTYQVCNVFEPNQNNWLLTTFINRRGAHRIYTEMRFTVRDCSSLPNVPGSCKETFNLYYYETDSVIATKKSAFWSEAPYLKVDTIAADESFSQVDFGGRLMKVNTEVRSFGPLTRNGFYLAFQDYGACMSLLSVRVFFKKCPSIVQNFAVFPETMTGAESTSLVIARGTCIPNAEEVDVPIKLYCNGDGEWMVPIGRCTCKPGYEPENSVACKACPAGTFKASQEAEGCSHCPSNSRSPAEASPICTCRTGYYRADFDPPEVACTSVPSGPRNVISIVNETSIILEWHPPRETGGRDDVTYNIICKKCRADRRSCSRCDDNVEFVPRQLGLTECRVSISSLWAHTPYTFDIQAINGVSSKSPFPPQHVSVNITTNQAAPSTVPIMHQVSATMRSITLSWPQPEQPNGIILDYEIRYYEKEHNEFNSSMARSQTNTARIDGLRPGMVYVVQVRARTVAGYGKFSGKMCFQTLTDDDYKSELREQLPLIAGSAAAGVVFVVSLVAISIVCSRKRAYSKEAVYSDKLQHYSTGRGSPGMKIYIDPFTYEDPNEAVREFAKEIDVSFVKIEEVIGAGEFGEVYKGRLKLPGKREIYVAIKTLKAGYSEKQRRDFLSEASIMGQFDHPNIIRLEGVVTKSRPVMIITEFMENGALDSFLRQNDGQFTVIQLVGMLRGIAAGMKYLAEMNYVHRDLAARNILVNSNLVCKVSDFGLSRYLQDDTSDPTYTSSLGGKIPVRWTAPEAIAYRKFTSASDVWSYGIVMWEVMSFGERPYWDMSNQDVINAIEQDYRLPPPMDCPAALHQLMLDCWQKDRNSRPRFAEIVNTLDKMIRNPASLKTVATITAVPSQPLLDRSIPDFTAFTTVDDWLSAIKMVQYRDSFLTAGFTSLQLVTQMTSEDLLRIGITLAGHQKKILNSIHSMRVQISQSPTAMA

| Sequence | SH2 binding enrichment (SHP2-C SH2) | SH2 binding enrichment (c-Src SH2) | SH2 binding enrichment (Grb2 SH2) | phosphorylation enrichment (EPHB1) | phosphorylation enrichment (Hck) | phosphorylation enrichment (Fes) | phosphorylation enrichment (FGFR3) | phosphorylation enrichment (Fer (mouse)) | phosphorylation enrichment (EPHB2) | phosphorylation enrichment (c-Abl (mouse)) | phosphorylation enrichment (AncSZ) | phosphorylation enrichment (MERTK) | phosphorylation enrichment (Jak2) | phosphorylation enrichment (FGFR1) | phosphorylation enrichment (c-Src) | phosphorylation enrichment (Fyn) |
| --- | --- | --- | --- | --- | --- | --- | --- | --- | --- | --- | --- | --- | --- | --- | --- | --- |
| MPLTEYLKQIK [CNGB3_Y200_R203Q] | 0.651 | 0.364 | 0.534 | 0.572 | 0.514 | 0.995 | 0.526 | 0.451 | 0.511 | 0.844 | 0.83 | 0.459 | 0.749 | 0.533 | 0.582 | 0.448 |
| MYVKSYTIHYS [F5_Y2153] | 0.826 | 0.443 | 0.666 | 0.723 | 0.516 | 1.17 | 0.815 | 0.508 | 0.732 | 0.674 | 1.03 | 0.446 | 0.86 | 0.542 | 0.425 | 0.492 |
| NAPNSYGRRPT [CDKN2A_Y44_I49T] | 0.615 | 0.567 | 0.599 | 0.452 | 0.424 | 0.717 | 0.499 | 0.38 | 0.281 | 0.79 | 0.784 | 0.593 | 1.11 | 0.343 | 0.528 | 0.402 |
| NDHHVYLEGTL [ALDOB_Y223] | 0.646 | 1.72 | 0.995 | 0.494 | 0.53 | 0.756 | 0.578 | 0.46 | 0.509 | 0.555 | 0.718 | 0.435 | 0.662 | 0.494 | 0.421 | 0.468 |
| NELTFYCCKKD [CD59_Y87_YF] | 0.707 | 0.503 | 0.938 | 0.514 | 0.46 | 1.28 | 0.715 | 0.461 | 0.739 | 0.808 | 1.39 | 0.466 | 1.29 | 0.54 | 0.436 | 0.452 |
| NFRTTCVNANE [KCNH2_Y475_Y475C] | 0.536 | 0.387 | 0.723 | 0.53 | 0.483 | 0.955 | 0.619 | 0.464 | 0.605 | 0.808 | 0.974 | 0.423 | 0.979 | 0.528 | 0.428 | 0.53 |
| NGVSYYINLCQ [IGF2R_Y2025] | 0.488 | 0.466 | 0.717 | 0.787 | 0.581 | 1.38 | 1.04 | 0.548 | 0.548 | 0.916 | 1.19 | 0.417 | 1.38 | 0.525 | 0.374 | 0.449 |
| NKPTVYGVSPN [ABL1_Y226] | 0.523 | 0.501 | 0.899 | 0.399 | 0.603 | 0.623 | 0.446 | 0.443 | 0.373 | 0.67 | 0.547 | 0.395 | 0.478 | 0.376 | 0.659 | 0.55 |
| NLMPAYYKCIQ [CYP21A2_Y190] | 0.444 | 0.522 | 0.596 | 0.708 | 0.507 | 1.28 | 0.866 | 0.626 | 0.496 | 1.24 | 1.09 | 0.57 | 1.34 | 0.57 | 0.51 | 0.432 |

Now from value to sequence, other results behind:

| SH2 binding enrichment (SHP2-C SH2) | SH2 binding enrichment (c-Src SH2) | SH2 binding enrichment (Grb2 SH2) | Sequence | phosphorylation enrichment (EPHB1) | phosphorylation enrichment (Hck) | phosphorylation enrichment (Fes) | phosphorylation enrichment (FGFR3) | phosphorylation enrichment (Fer (mouse)) | phosphorylation enrichment (EPHB2) | phosphorylation enrichment (c-Abl (mouse)) | phosphorylation enrichment (AncSZ) | phosphorylation enrichment (MERTK) | phosphorylation enrichment (Jak2) | phosphorylation enrichment (FGFR1) | phosphorylation enrichment (c-Src) | phosphorylation enrichment (Fyn) |
| --- | --- | --- | --- | --- | --- | --- | --- | --- | --- | --- | --- | --- | --- | --- | --- | --- |
| 0.423 | 0.513 | 0.827 | MHDKEYYSVHN [MET_Y1234_Y1230H] | 0.53 | 0.459 | 0.748 | 2.08 | 0.411 | 0.497 | 0.479 | 0.78 | 0.496 | 0.807 | 3.36 | 0.61 | 0.488 |
| 0.706 | 2.21 | 4.43 | MNKNAYHNVTT [ST3GAL6_Y306_A311T] | 0.358 | 0.385 | 0.426 | 0.495 | 0.322 | 0.352 | 0.525 | 0.497 | 0.412 | 0.434 | 0.358 | 0.364 | 0.34 |
| 0.749 | 0.721 | 1.15 | MTYMFYRENLR [NLRP14_Y443_V441M] | 0.948 | 1.97 | 1.19 | 0.753 | 0.456 | 1 | 0.751 | 1.33 | 0.608 | 1.1 | 0.628 | 2.72 | 1.48 |
| 0.504 | 0.404 | 0.754 | NELTFYCFKKD [CD59_Y87_C89Y_YF] | 0.541 | 0.448 | 1.22 | 0.614 | 0.591 | 0.492 | 0.758 | 0.96 | 0.381 | 1.12 | 0.456 | 0.35 | 0.412 |
| 19.3 | 12.1 | 0.826 | NGSKGYAYVHF [PABPC5_Y147] | 0.553 | 0.499 | 0.904 | 0.718 | 0.516 | 0.61 | 0.707 | 1.08 | 0.519 | 0.961 | 0.736 | 0.456 | 0.493 |
| 1.4 | 1.11 | 1.33 | NHFKICNLCAE [PTEN_Y68_Y68C_YF] | 0.461 | 0.413 | 0.687 | 0.544 | 0.4 | 0.468 | 0.75 | 0.609 | 0.484 | 0.682 | 0.401 | 0.486 | 0.415 |
| 1 | 1.17 | 0.994 | NHRNQYQALKT [CLSPN_Y887_P892T] | 0.422 | 0.506 | 0.656 | 0.439 | 0.499 | 0.43 | 0.753 | 0.536 | 0.4 | 0.48 | 0.503 | 0.364 | 0.451 |
